Tests used:
[1] = target: FcγRIa of RAW 264.7 cells (mouse (endogenous in RAW 264.7)) (UniProt P26151)
[2] = target: C-terminal truncated Myc-hFcγRIa which lacks the cytoplasmic tail (human) (UniProt P12314); test: adhesion of bacteria to transfected cells (total cell associated bacteria); COS-1 monolayers transfected with Myc-hFcγRIa, Myc-hFcγRIa-CT, Myc-hFcγRII or pcDNA3 (mock); E. coli K1 at an MOI of 100, 1.5 h, 37°C; cell associated bacteria plated
Chain of UniProt P12314 (P12314 16-314): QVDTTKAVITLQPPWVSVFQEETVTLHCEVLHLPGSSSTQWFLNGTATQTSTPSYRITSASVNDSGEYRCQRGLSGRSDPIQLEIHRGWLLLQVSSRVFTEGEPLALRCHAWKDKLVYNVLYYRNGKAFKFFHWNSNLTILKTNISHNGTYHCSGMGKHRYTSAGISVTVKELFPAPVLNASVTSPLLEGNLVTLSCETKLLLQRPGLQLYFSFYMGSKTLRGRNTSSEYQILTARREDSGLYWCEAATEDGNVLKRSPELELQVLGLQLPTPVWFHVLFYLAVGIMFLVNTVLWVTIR

Chain of UniProt P26151 (P26151 25-404): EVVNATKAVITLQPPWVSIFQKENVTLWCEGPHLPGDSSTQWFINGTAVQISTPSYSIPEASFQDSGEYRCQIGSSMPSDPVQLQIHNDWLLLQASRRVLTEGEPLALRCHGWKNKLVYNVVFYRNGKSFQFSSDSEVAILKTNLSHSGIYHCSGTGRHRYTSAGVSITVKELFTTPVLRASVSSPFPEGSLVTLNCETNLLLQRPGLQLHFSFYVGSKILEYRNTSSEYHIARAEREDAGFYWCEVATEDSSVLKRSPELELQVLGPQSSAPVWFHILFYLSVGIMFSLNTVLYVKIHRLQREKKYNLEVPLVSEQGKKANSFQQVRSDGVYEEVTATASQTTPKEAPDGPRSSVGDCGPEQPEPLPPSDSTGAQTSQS

outer membrane protein A (OmpA) of E. coli K1 (from UniProt P0A910 22-346) (natural protein)
reduction of intracellular E. coli K1 in RAW 264.7 cells (gentamicin protection assay) by Fab fragments of anti-OmpA antibody or by anti-FcγRI antibody [1]: 80%
decrease of bacterial binding against Myc-hFcγRIa+/COS-1 cells [2]: 30%

From paper PMC2987830
